From doi:10.1101/2020.12.18.423415 (bioRxiv, 2020) come the findings set out here.

The assay has as its target receptor binding domain (RBD) of the SARS-CoV-2 S protein (SARS-CoV-2, UniProt P0DTC2). Description: ELISA. On the technique in general: ELISA stands for enzyme-linked immunosorbent assay.

B1: recombinant fragment of human surfactant protein D (rfhSP-D) (domain or fragment)
chain: PGLKGDKGIPGDKGAKGESGLPDVASLRQQVEALQGQVQHLQAAFSQYKKVELFPNGQSVGEKIFKTAGFVKPFTEAQLLCTQAGGQLASPRSAAENAALQQLVVAKNEAAFLSMTDSKTEGKFTYPTGESLVYSNWAPGEPNDDGGSEDCVEIFTNGKWNDRACGEKRLVVCEF
In the case of B1, the “percent decrease of RBD-hACE-2 interaction (rfhSP-D increased 8-fold)” value was around 25%.
